These results are taken from the nanobody polyreactivity screen of Harvey et al. (2022).

The data set in a line: yeast display, Sf9 membrane polyspecificity reagent, FACS + sequencing; frameworks hold sequencing errors. The essentials: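 In a synthetic yeast display library (Saccharomyces cerevisiae BJ5465), nanobody expression was induced with galactose for 36–48 hours. FACS gates were set low and high (top ~1%) using anti-HA fluorescence for expression and streptavidin fluorescence for binding of the Sf9 membrane reagent. Each polyreactivity label is drawn from the gate of origin.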
Consider “QVQLVESGGGLVQAGGSLRLSCAASGRTFYVYAMGWYRQAPGKERELVATISRGGSTTYADSVKGRFTISRDNAKNTVYLQMNSLKPEDTAVYYCATELLGGRRTVAYYWGQGTQVTVSS”, for which the “polyreactivity (PSR sort gate)” value is on record as “low polyreactivity”.

As for “QVQLVESGRGLVQAGGSLRLSCAASGRIFYVYAMGWSRTAPGKERELVAAITQSGGRTYYADSVKGRFTISRDNAKNTVYLQMNSLKPEDTAVYYCAATWLGSRNLVHITLYYWGQGTQVTVSS”, the “polyreactivity (PSR sort gate)” value is listed as “low polyreactivity”. Under “QVQLVESGGGLVQAGGSLRLSCAASGRIFGYYTMGWYRQAPGKERELVAGITRRGGRTYYADSVKGRFTISRDNAKNTVYLQMNSLKPEDTAVYYCDVRSGVNFYYWGQGTQVTVSS” stands “high polyreactivity”. The result for “QVQLVESGGGLVQAGGSLRLSCAASGITFTFNAMGWYRQAPGKERELVAAISSTTSTKYADSVKGRFTISRDNAKTTVYLQMNSLKPEDTAVYYCARTYWLRYYGYRDDEYDYWGQGTQVTVSS” reads “low polyreactivity”.

Take “QVQLVESGGGLVQAGGSLRLSCAASGFTLSASAMGWYRQAPGKERELVAGITYTGGRTYYADSVKGRFTISRDNAKNTVYFQMNSLKPEVTAVYYCNKAWSGYYKYGYWGQGTQVSVSS”: the “polyreactivity (PSR sort gate)” value was “low polyreactivity”. Under “QVQLVESGGGLVPAGGSLRLSCAASGNNFRANTMGWYRQARGKERELVASIRRSGGSSYYADSVKGRFTISRDNAKNTVYLQMNSLKPEDTAAYYCAAESRPPYTDNYYWGQGTQVTVSS” stands “high polyreactivity”; under “HVQHVESGGGLVQAGGSLRVSCAASGSIFYTNVMGWYRQAPGKERELVARIDSGGSTNYADSVKGRFTISRDNAKNTVYLQMYSLKPEDTAVYYCAADWYIYDYWGQGTQVTVSS”, “low polyreactivity”; under “QVQLVESGGGLVQARGSRRLSCAASGLTFVPTAMGWYRQAPGKEREFVAAISNNGGRKYYADSVKGRFTISRDNAKNRVYLQINSLKPDDTAVYYCAKYLSPGERHSYDYWGQGTQVTVSS”, “high polyreactivity”. Regarding “QVQLVESGGGLVQAGGSLRLSCAASGRIFTRYAMGWYRQAPGKARELVAAITSSGGRTYYADSVKGRFTISRDNAKNTVYLQMNSLKQEDTAVYYCATGYINSYYYWGQGTQVTVSS”, the “polyreactivity (PSR sort gate)” value is “high polyreactivity”. The result for “QVQLVESGGGLVQAGGSLRLSCAASGRIFGPYAMGWSRQAPGKERELVASISYSGGSTYYADSVKGRFTISRDNAKNTVYLQMNSLKPEDTAVYYCNALSRTAWSYYLYPSTPFDYWGQGTQVTVSS” reads “low polyreactivity”. Under “QFQLVESGRGLVQAGGSLRLSCAASGSIFYSYAMGRYRQAPGKEREFVATISDSSGSTYYADSVKGRFTISRDNAKNTVYLQMNSMIPEDTAVYYCATTDSYGYYGYGDWGQGTQVTVSS” stands “low polyreactivity”; under “QVQLVESGGGLVQAGGSLRLSCAASGRIFQGYAMGWYRQAPRKERELVASITVRGGTTYYADSVKGRFTISRDHAKNTVYLQMISLKPEDTAVYYCNAAKLIHGYQSVYPGSNSRYYYWGQGTQVTVSS”, “low polyreactivity”. Under “QVQLVESGGGLFQAGGSLRLSCAASVSIFSWYTMGWYRQAPGKERELDAAITSSGGSTYYADSVKGRFTISRDNAKNTVYLQMNSLKPEDTAVYYCAAKSWFYYLHRPYVRRYDYWGQGTQVTVSS” stands “high polyreactivity”; under “QVQLVESGGGLVQAGGSLRLSCAASGSIFAANVMGWYRQAPGKERELVAVISGGGGRTFYADSVKGRFTISRDNAKNTVYLQMNSLKPEDTAVYYCAADRRDRSPYYYWGQGTQVTVSS”, “high polyreactivity”. In the case of “QVQLVESGGGLVQAGGSLRLSCAASGTFQSYAMGWNRQAPGKERELVAAISRSGASTYYADSVKGRFTISRDNAKNTVYLQMISLKPEDTAVYYFAARKTSKYYYWGQGTQVTVSS”, the “polyreactivity (PSR sort gate)” value is listed as “high polyreactivity”. The result for “QVQLVESGGGLVQAGGSLRLSCAASGRIFVSNAMGWYRQAPGKERELVAGITWTSGSTYYADSVKGRFTISRDNAKNTVYLQMNSLKPEDTAVYYCAAEYCYGNAFDYWGQGTQVTVSS” reads “low polyreactivity”. The result for “QVQLVESGGGLVQAGGSLRLSCAASGRTFENYAMGWYRQAPGKERELVAAISKSGGSTYYADSVKGRFTISRDNAKNTVYLQMNSLKPEDTAVYYCAARLPGYYGIGDYWGQGTQVTVSS” reads “high polyreactivity”. Consider “QVQLVESGGGLVQAGGSLRLSCAASGSTFYPYAMGWYRQAPGKERELVAAINLRADSTNYADSVKGRFTISRDNAKNTVYLQMNSLKPEDTAVYYCAARVSYRSGRRPLWAYNSWGQGTQVTVSS”, for which the “polyreactivity (PSR sort gate)” value is reported as “high polyreactivity”. With “QVQLVESGGGLVQAGGSLRLSCAASGFIFITVNAMGWYRQAPGKEREFVAAITRSGTGTYYADSVKGRFTISRDNAKNTVYLQMNSLKPEDTAVYYCAAEWSEESDYWGQGTQVTVSS”, the “polyreactivity (PSR sort gate)” value is recorded as “low polyreactivity”.

In the case of “QVQLVESVGGIVQAGGSLRLSCAASGITLYWYAMGWYRQAPGKERELVAAISRRGGTTYYADSVKGRFTISRDNAKINVFLQMHSLNPEDTAVYYCAKAPDTQTSWSRQEGTYWGQGTQVTVSS”, the “polyreactivity (PSR sort gate)” value was “low polyreactivity”. Under “QVQLVESGGGLVQAGGSLRLSCAASGSTFGGNAMGWYRQAPGKERELVAGITSSGTSTYYADSVKGRFTISRDNAKNTVYLQMNSLKPEDTAVYYCATDEADESYGFELFDYWGQGTQVTVSS” stands “low polyreactivity”.

As for “QVQLVESGGGLVQAGGSLRLSCAASGSTFYSNAMGWYRQAPGKERELVASISWSSGSTYYADSVKGRFTISRDNAKNTVYLQMNSLKPDDTAVYYCATDAGGPYRFGYWGQGTQVTVSS”, the “polyreactivity (PSR sort gate)” value was “low polyreactivity”. Under “QVQLVESGGGLVQAGGSLRLSCAASGRILARYTMGWYRQAPGKERELVAAISRSSGSTYYADSVKGRFTISRDTAKNTVYLQMNSLKPEDTAVYYCAAYLSYWGQGTQVTVSS” stands “high polyreactivity”. The result for “QVQLVESGGGLVQAGGSLRLSCAASGFTFSWNVMGWYRQAPGKERELVAAISTSYGGTYYADSVKGRFTISRDNAKNTVYLQMNSLKPEDTAVYYCATLYYPNTSYEYYYWGQGTQVTVSS” reads “low polyreactivity”.

On to “QVQLVESGGGLVQAGGSLRLSCAASGSILYYNAMGWYRQAHGKEREFVASISLTGGSTTYADSVKGRFTISRDNAKNTVYLQMNSLKPEDTAVYYCNATHYPAADRSTNNYGGGFDYWGEGTQVTVSS”, for which the “polyreactivity (PSR sort gate)” value is given as “low polyreactivity”. Under “QVQLVESGGGLVQAGGSLRLSCAASGGTFATYAMGWYRQAPGKEKELVAAISWSGGSTYYADSVKGRFTISRDNAKNTVYLQMNSLKPEDTAVYYCNALPRLGGGAEKLDYWGQGTQVTVSS” stands “high polyreactivity”. Under “QVQLVESGGGLVQAGGSLRLSCAASGITFQRYVLGWYRQAPGKERELVAAISFTASSTYYADSVKGRFTISRDYAKKTVYLQMNSLKPEDTAVYYCAADGSVPKYVPYPRYYGYGYWGQGTQVTVSS” stands “high polyreactivity”; under “QDQLVESGGGLVQAGGSLRLSCAASGSIFYQNAMGWYRQAPGKERELVAAISIGGGSTYYADSVKGRFTISRDNAKNTVYLQMNSLKPEDTAVYYCATRRSVIYSYVPFDYWGQGTQVTVSS”, “low polyreactivity”; under “QVQLVESGGGLVQAGGSLRLSCAASGSTFVRYAMGWYRQAPGKERELVAAITGTGSSTYYADSVKGRFTISRDNAKNTVYLQMNSLKPEDTAVYYCAKRWRTVFGYDYWGQGTQVTVSS”, “high polyreactivity”. Under “QVQLVESGGGLVQAGGSLRLSCAASGFIFAYNAMGWYRQAPGKERELVAAISWSGGSTYYADSVKGRFTISRDNAKNTVYLQMNSLKPEDTAVYYCNKYIRYPFKRYGYWGQGTQVTVSS” stands “high polyreactivity”; under “QVQLVESGGGLVQAGGSLRLSCAASGSILVYNAMGWYRQAPGKERELVDAISNTGRTYYADSVKGRFTISRDNAKNTVYLQMNSLKPEDTAVYYCADRFYRVLHRFGYWGQGTQVTVSS”, “high polyreactivity”; under “QVQLVESGGGLVQAGGSLRLSCAASGRIFTRYTMGWYRQAPGKERELVAAISSSDSSTYYADSVKGRFTISRDNAKNTVYLQMNSLKPEDTAVYYCNADRLFYEIYDYGAVRIGYDYWGQGTQVTVSS”, “low polyreactivity”.

Regarding “QVQLVESGGGLVQAGGSLRLSCAASGRIFPRNAMGWYSPAPGKERELVAAITRAGSTYYADSVKGRFTISRDNAKNTVYLQLNSLKPEDTAVYYCNRQWHRDVYGHDYWGQGTQVTVSS”, the “polyreactivity (PSR sort gate)” value was “high polyreactivity”. Under “QVQLVESGGGLVQAGGSLRLSCAASGSIFGSYAMGWYRQAPGKERELVAAITYSGGSTYYADSVKGRFTISRDNAKNTVYLHMNSLKPEDTAVYYCAADYSFYWAYFDYWGQGTQVTVSS” stands “high polyreactivity”. Under “QVQLVESGGGIVQAGGSLRLSCAASGSTFVSNAMGWYRQAPGKERELVAAITTGGSTYYADSVKGRFTISRDNAKNTVYLQMNSLKPEDTAVYYCAADSVLNWFWGQGTQVTVSS” stands “low polyreactivity”. The result for “QVQLVESGGGLVQAGGSLRLSCASSGRIFRGYAKGGYRQAPGKERELVADISSGASTNYADSVKGRFTISRDNAKNSVYLQMNRLKPEDTAVYYCAASIYAALIGGPGYDYWGQGTQVTVSS” reads “low polyreactivity”. As for “QVQLVESGGGLVQAGGSLRLSCAASGLTFYNARGWYRQAPGKERELVAAISGTVSRTYYADSVKGRFTISRDNAKNTVYLEMNSLKPEDTAVYYCAVRWYGKYSGVRYYYWGQGTQVNVSS”, the “polyreactivity (PSR sort gate)” value is listed as “high polyreactivity”. Take “QVQLVESGGGLVQAGGSLRLSCAASGGTFAYYAMGWYRQAPGKERELVAVISRRGTSTYYADSVKGRFTISRDNAKNTVYLQMNSLKPEDTAVYYCNARTWDHPYGYWGQGTQVTVSS”: the “polyreactivity (PSR sort gate)” value is listed as “high polyreactivity”. The result for “QVQLVESGGGLVQAGGSLRLSCAATGRIFGQNAMGWYRQAPGKERELVAAINWSVGSTYYADSVKGRFTISRDNAKNTVYLQMNSLKPEDTGVYYCAAGNLYYAEYDYWGQGTQVTVSS” reads “low polyreactivity”. Turning to “QVQLVESGGGIVQAGGSLRLSCAASGITSYFNAMGWYRQAPGKERELVAITWNGGSTYYADSVKGRFTITRDNAKNTVYLQMNSLKPEDTAVYYCAARYRRYNRKYDYWGQGTQVTVSS”, the “polyreactivity (PSR sort gate)” value is on record as “high polyreactivity”. In the case of “QVQLVESGGGLVQAGGSLRLSCAASGFIFPGNAMGWYRQAPGKEREFVAVISGSGGSTYYADSVKGRFTISRDNAKNTVYLQMNSLKPEDTAVYYCAAVYRDKSQRADYDYWGQGTQVTVSS”, the “polyreactivity (PSR sort gate)” value was “high polyreactivity”.
